Data: US20160051694A1 (AGENSYS, published 2016)
Blank lines part the entries; values can stand above or below the binder they belong to.

Key:
[1] = target: T1, CD37 (Leukocyte Antigen CD37, Tetraspanin-26) on cells (human, UniProt P11049 1-281); experiment: FACS, BDCM cells (AML); ratio to isotype control
T1 construct: In the assays it is the endogenous CD37 of human cancer cell lines, of AML patient PBMC and of patient tumor sections, or CD37 on recombinant 293T cells; also called CD37 antigen; CD37 expressing cells
T1 sequence: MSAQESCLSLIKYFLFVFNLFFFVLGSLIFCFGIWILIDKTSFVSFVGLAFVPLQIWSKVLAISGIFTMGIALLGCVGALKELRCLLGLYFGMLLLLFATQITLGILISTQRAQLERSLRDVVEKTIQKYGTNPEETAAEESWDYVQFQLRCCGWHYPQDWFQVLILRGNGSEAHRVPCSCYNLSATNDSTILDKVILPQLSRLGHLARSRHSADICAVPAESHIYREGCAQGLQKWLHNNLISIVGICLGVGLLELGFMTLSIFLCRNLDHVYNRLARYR
Procedure: (§1) HvCD37-6b15.1.1 was tested for binding to different NHL, CLL and AML cell lines (See, Table VI) grown in-vitro. HvCD37-6b15.1.1 and an Isotype matched control antibody were biotinylated using NHS LC biotin. In vitro cancer lines growing exponentially were used for all experiments. Briefly, cells were harvested by and washed by centrifugation. Antibodies were diluted to 5 μg/mL final concentration and co-incubated with cells at 4° C. for 1 hour. At the end of the incubation, cells were washed and incubated with secondary detection Streptavidin-PE antibody at a final 1:400 (1.25 μg/mL) dilution for 1 hr at 4° C. After washing un-bound secondary antibody, cells were analyzed by FACS, a total of 10,000 events were collected per sample. Data files were analyzed using FlowJo and Geometric Mean Fluorescence was determined and reported. Fluorescense ratio was calculated as follows: Geo mean AGS67C/Geo Mean Isotype control=MFR, a measure of fold expression above Isotype control.

[2] = target: T1, CD37 (Leukocyte Antigen CD37, …); experiment: FACS, Mino cells (MCL); ratio to isotype control
Procedure: as §1

[3] = target: T1, CD37 (Leukocyte Antigen CD37, …); experiment: FACS, EoL-1 cells (AML); ratio to isotype control
Procedure: as §1

[4] = target: T1, CD37 (Leukocyte Antigen CD37, …); experiment: FACS, HL-60 cells (AML); ratio to isotype control
Excerpt: (§2) To express HvCD37-6b15.1.1 MAb recombinantly in transfected cells, HvCD37-6b15.1.1 MAb variable heavy and light chain sequences were cloned upstream of the human heavy chain IgG2 and human light chain Igκ constant regions respectively. The complete HvCD37-6b15.1.1 MAb human heavy chain and light chain cassettes were cloned downstream of the CMV promoter/enhancer in a cloning vector. A polyadenylation site was included downstream of the MAb coding sequence. The recombinant HvCD37-6b15.1.1 MAb expressing construct was transfected into CHO cells. The HvCD37-6b15.1.1 MAb secreted from recombinant cells was evaluated for binding to human cancer cell lines expressing CD37 by FACS (See, Table VI). Binding was detected by flow cytometry.
as §1, with “Briefly, cells were harvested by and washed by centrifugation. Antibodies were diluted to 5 μg/mL final concentration and co-incubated with cells at 4° C. for 1 hour. At the end of the incubation, cells were washed and incubated with secondary detection Streptavidin-PE antibody at a final 1:400 (1.25 μg/mL) dilution for 1 hr at 4° C.” left out

[5] = target: T1, CD37 (Leukocyte Antigen CD37, …); experiment: FACS, JVM-3 cells (CLL); ratio to isotype control
Procedure: as §1

[6] = target: T1, CD37 (Leukocyte Antigen CD37, …); experiment: FACS, REC-1 cells (MCL); ratio to isotype control
Excerpt: as §2
as §1, with “Briefly, cells were harvested by and washed by centrifugation. Antibodies were diluted to 5 μg/mL final concentration and co-incubated with cells at 4° C. for 1 hour. At the end of the incubation, cells were washed and incubated with secondary detection Streptavidin-PE antibody at a final 1:400 (1.25 μg/mL) dilution for 1 hr at 4° C.” left out

[7] = target: T1, CD37 (Leukocyte Antigen CD37, …); experiment: FACS, THP-1 cells (AML); ratio to isotype control
Excerpt: as §2
as §1, with “Briefly, cells were harvested by and washed by centrifugation. Antibodies were diluted to 5 μg/mL final concentration and co-incubated with cells at 4° C. for 1 hour. At the end of the incubation, cells were washed and incubated with secondary detection Streptavidin-PE antibody at a final 1:400 (1.25 μg/mL) dilution for 1 hr at 4° C.” left out

[8] = target: T1, CD37 (Leukocyte Antigen CD37, …); experiment: FACS, MOLT-4 cells (ALL); ratio to isotype control
Procedure: as §1

[9] = target: T1, CD37 (Leukocyte Antigen CD37, …); experiment: FACS, RS4-11 cells (ALL); ratio to isotype control
Excerpt: as §2
as §1, with “Briefly, cells were harvested by and washed by centrifugation. Antibodies were diluted to 5 μg/mL final concentration and co-incubated with cells at 4° C. for 1 hour. At the end of the incubation, cells were washed and incubated with secondary detection Streptavidin-PE antibody at a final 1:400 (1.25 μg/mL) dilution for 1 hr at 4° C.” left out

[10] = target: T1, CD37 (Leukocyte Antigen CD37, …); experiment: FACS, MOLM-13 cells (AML); ratio to isotype control
Procedure: as §1

[11] = target: T1, CD37 (Leukocyte Antigen CD37, …); experiment: FACS, MV-4-11 cells (AML); ratio to isotype control
Procedure: as §1

[12] = target: T1, CD37 (Leukocyte Antigen CD37, …); experiment: FACS, Kasumi-1 cells (AML); ratio to isotype control
Excerpt: as §2
as §1, with “Briefly, cells were harvested by and washed by centrifugation. Antibodies were diluted to 5 μg/mL final concentration and co-incubated with cells at 4° C. for 1 hour. At the end of the incubation, cells were washed and incubated with secondary detection Streptavidin-PE antibody at a final 1:400 (1.25 μg/mL) dilution for 1 hr at 4° C.” left out

[13] = target: T1, CD37 (Leukocyte Antigen CD37, …); experiment: FACS, Raji cells (Burkitt's); ratio to isotype control
Procedure: as §1

[14] = target: T1, CD37 (Leukocyte Antigen CD37, …); experiment: FACS, SU-DHL-4 cells (DLBCL); ratio to isotype control
Procedure: as §1

[15] = target: T1, CD37 (Leukocyte Antigen CD37, …); experiment: FACS, Daudi cells (Burkitt's); ratio to isotype control
Excerpt: as §2
as §1, with “Briefly, cells were harvested by and washed by centrifugation. Antibodies were diluted to 5 μg/mL final concentration and co-incubated with cells at 4° C. for 1 hour. At the end of the incubation, cells were washed and incubated with secondary detection Streptavidin-PE antibody at a final 1:400 (1.25 μg/mL) dilution for 1 hr at 4° C.” left out

[16] = target: T1, CD37 (Leukocyte Antigen CD37, …); experiment: FACS, Ramos cells (Burkitt's); ratio to isotype control
Excerpt: as §2
as §1, with “Briefly, cells were harvested by and washed by centrifugation. Antibodies were diluted to 5 μg/mL final concentration and co-incubated with cells at 4° C. for 1 hour. At the end of the incubation, cells were washed and incubated with secondary detection Streptavidin-PE antibody at a final 1:400 (1.25 μg/mL) dilution for 1 hr at 4° C.” left out

[17] = target: T1, CD37 (Leukocyte Antigen CD37, …); experiment: FACS, WSU-DLCL-2 cells (DLBCL); ratio to isotype control
Excerpt: as §2
as §1, with “Briefly, cells were harvested by and washed by centrifugation. Antibodies were diluted to 5 μg/mL final concentration and co-incubated with cells at 4° C. for 1 hour. At the end of the incubation, cells were washed and incubated with secondary detection Streptavidin-PE antibody at a final 1:400 (1.25 μg/mL) dilution for 1 hr at 4° C.” left out

[18] = target: T1, CD37 (Leukocyte Antigen CD37, …); experiment: FACS, DOHH-2 cells (Follicular); ratio to isotype control
Excerpt: as §2
as §1, with “Briefly, cells were harvested by and washed by centrifugation. Antibodies were diluted to 5 μg/mL final concentration and co-incubated with cells at 4° C. for 1 hour. At the end of the incubation, cells were washed and incubated with secondary detection Streptavidin-PE antibody at a final 1:400 (1.25 μg/mL) dilution for 1 hr at 4° C.” left out

[19] = target: T1, CD37 (Leukocyte Antigen CD37, …); experiment: FACS, Mino XCL cells (MCL, in-vivo xenograft); ratio to isotype control
[20] = target: T1, CD37 (Leukocyte Antigen CD37, …); experiment: FACS, KG-1 cells (AML); ratio to secondary detection (high isotype background)
Excerpt: as §2
as §1, with “At the end of the incubation, cells were washed and incubated with secondary detection Streptavidin-PE antibody at a final 1:400 (1.25 μg/mL) dilution for 1 hr at 4° C.” left out, “Fluorescense ratio was calculated as follows: Geo mean AGS67C/Geo Mean Isotype control=MFR, a measure of fold expression above Isotype control.” left out

[21] = target: T1, CD37 (Leukocyte Antigen CD37, …); experiment: FACS, Ramos RR XCL cells (Burkitt's, rituxan resistant); ratio to isotype control
Procedure: as §1

[22] = target: T1, CD37 (Leukocyte Antigen CD37, …); experiment: FACS, Hel 92.1 cells (AML); ratio to secondary detection (high isotype background)
Procedure: as §1, with “Fluorescense ratio was calculated as follows: Geo mean AGS67C/Geo Mean Isotype control=MFR, a measure of fold expression above Isotype control.” left out

[23] = target: T1, CD37 (Leukocyte Antigen CD37, …); experiment: FACS, Granta-519 cells (MCL); ratio to secondary detection (high isotype background)
Excerpt: as §2
as §1, with “At the end of the incubation, cells were washed and incubated with secondary detection Streptavidin-PE antibody at a final 1:400 (1.25 μg/mL) dilution for 1 hr at 4° C.” left out, “Fluorescense ratio was calculated as follows: Geo mean AGS67C/Geo Mean Isotype control=MFR, a measure of fold expression above Isotype control.” left out

[24] = target: T1, CD37 (Leukocyte Antigen CD37, …); experiment: FACS on cells expressing CD37

- MFR (Mean Florescence ratio) [1]: 64
- MFR (Mean Florescence ratio) [2]: 301
- MFR (Mean Florescence ratio) [3]: 3
- MFR (Mean Florescence ratio) [4]: 5
- MFR (Mean Florescence ratio) [5]: 122
- MFR (Mean Florescence ratio) [6]: 341
- MFR (Mean Florescence ratio) [7]: 23
- MFR (Mean Florescence ratio) [8]: 3
- MFR (Mean Florescence ratio) [9]: 26
- MFR (Mean Florescence ratio) [10]: 6
- MFR (Mean Florescence ratio) [11]: 8
- MFR (Mean Florescence ratio) [12]: 9
- MFR (Mean Florescence ratio) [13]: 135
- MFR (Mean Florescence ratio) [14]: 662
- MFR (Mean Florescence ratio) [15]: 39
- MFR (Mean Florescence ratio) [16]: 534
- MFR (Mean Florescence ratio) [17]: 554
- MFR (Mean Florescence ratio) [18]: 581
- MFR (Mean Florescence ratio) [19]: 316
- MFR (Mean Florescence ratio) [20]: 10
- MFR (Mean Florescence ratio) [21]: 140
- MFR (Mean Florescence ratio) [22]: 28
- MFR (Mean Florescence ratio) [23]: 372
B1: HvCD37-6b15.1.1 MAb (recombinant, expressed in CHO cells, human IgG2 / kappa) (antibody, V domains shown)
VH: QVQLQQWGAGLLKPSETLSLTCAVYGGSFSPYYWSWIRQPPGKGLEWIGEINHSGSTNYNPSLKSRVTISVDTSKNQFSLKLSSVTAADTAVYYCARRAGDFDYWGQGTLVTVSS
VL: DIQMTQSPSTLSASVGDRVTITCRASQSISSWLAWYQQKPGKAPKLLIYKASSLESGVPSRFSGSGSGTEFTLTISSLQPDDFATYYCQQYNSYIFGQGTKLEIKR
modifications: typical heavy chain of purified CHO material: N-terminal glutamine modified to pyroglutamate and C-terminal lysine deleted; biotinylated with NHS LC biotin for the FACS assays
notes: Fully human antibody: human variable regions on human IgG2 and human kappa constant regions, made in CHO cells (ATCC PTA-120464); also called HvCD37-6b15.1.1 IgG2; AGS67C

- binding result [24]: binds
B2: HvCD37-6b15.1.1 MAb purified from hybridoma (VelocImmune mouse) (antibody, V domains shown)
VH: QVQLQQWGAGLLKPSETLSLTCAVYGGSFSPYYWSWIRQPPGKGLEWIGEINHSGSTNYNPSLKSRVTISVDTSKNQFSLKLSSVTAADTAVYYCARRAGDFDYWGQGTLVTVSS
VL: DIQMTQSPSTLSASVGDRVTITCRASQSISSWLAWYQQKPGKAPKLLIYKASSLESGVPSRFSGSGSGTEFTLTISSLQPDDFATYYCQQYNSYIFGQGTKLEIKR
notes: also called HvCD37-6b15.1.1 purified from hybridoma; MAb material derived from hybridoma cells
